Test results from patent US10350158B2, “2′ fluoro-modified RNAs as immunostimulators” (DUKE UNIVERSITY, priority 2013, dated 2019).
Strand notation (5' to 3'): a small letter for the sugar, then the base; units joined by * are phosphorothioate-linked, units joined directly phosphodiester-linked; [ ] holds rarer units or linkages, { } end groups; capitals alone tell only the bases. {ppp} = triphosphate; r = 2'-OH (RNA); f = 2'-fluoro

How the values were obtained:
IL-8 = IL-8 ELISA of transfected melanoma cell supernatants; format: cell-based, human; conditions: 0.5 μg/ml, 24 h
Description: For the intracellular delivery of immune stimulatory RNAs, RNAs were transfected with the DharmaFECT® Duo liposomal transfection reagent (Thermo Scientific, Waltham, Mass.) at a transfection reagent (μl):RNA (μg) ratio of 3.75:1, according to the manufacturer's instructions. Unless otherwise stated, for the induction of innate immune responses and apoptosis, immune stimulatory RNAs (500 ng/ml) were transfected into 50 to 70% confluent cells. Cells were incubated with an RNA-transfection agent complex for 5 h, followed by replenishment with fresh culture medium. To electroporate cells, 1×10^5 cells suspended in 200 μl Opti-MEM I (Invitrogen) were mixed with 1 μg of immune stimulatory RNAs or 5 μg of 2'Fluoro pyrimidine ribonucleoside triphosphate in 2-mm cuvettes and were electroporated at 300 V for 500 μs using an Electro Square Porator ECM 830 (BTX, San Diego, Calif.). For the knockdown of RNA-sensing PRRs, cells were transfected with PRR-specific siRNAs (25 nM) twice at 2-day intervals using DharmaFECT®-1 (Thermo Scientific). At 5 h after the second siRNA transfection, cells were harvested, replated into a 96-well plate and incubated overnight. […] The production of human IL-8 was analyzed with a human IL-8 ELISA kit (eBioscience). IFN-β production was determined with a human IFN-β ELISA kit (PBL Biomedical Laboratories, Piscataway, N.J.) by following the manufacturer's instructions.

WM266-4 cells = assay: Apoptosis / cell death by Annexin V-PE and 7-AAD flow cytometry; format: cell-based, human; conditions: aptamer treated with bacterial alkaline phosphatase (BAP), 0.125 μg/ml
Description: For the intracellular delivery of immune stimulatory RNAs, RNAs were transfected with the DharmaFECT® Duo liposomal transfection reagent (Thermo Scientific, Waltham, Mass.) at a transfection reagent (μl):RNA (μg) ratio of 3.75:1, according to the manufacturer's instructions. Unless otherwise stated, for the induction of innate immune responses and apoptosis, immune stimulatory RNAs (500 ng/ml) were transfected into 50 to 70% confluent cells. Cells were incubated with an RNA-transfection agent complex for 5 h, followed by replenishment with fresh culture medium. […]
Growth inhibition relative to untreated cells was quantified at 72 h after RNA transfection using an MTT Cell Proliferation Assay Kit (Cayman Chemicals, Ann Arbor, Mich.), according to the manufacturer's instructions. The percent growth inhibition was calculated by using the following equation: % growth inhibition=([O.D.]untreated−[O.D.]treated)/[O.D.]untreated×100. The induction of cell death was measured 48 h after RNA transfection by flow cytometry after staining with Annexin V-PE and 7-Aminoactinomycin D (7-AAD) using the PE Annexin V Apoptosis Detection Kit I (BD Biosciences, San Jose, Calif.) and analyzed using the CellQuest software (BD Biosciences).

B1: 10F: 5′ppp 2′F pyrimidine ssRNA aptamer, 71 nt, human melanocytic cell-targeting, SEQ ID NO: 4 (nucleic acid)
chain: {ppp}-rGrGrGrArGrGrAfCrGrAfUrGfCrGrGfUrAfCfCfUrGrAfCrArGfCrAfUfCfUfUrGrAfUrArAfUrGrGfUfCfCfUrAfCrGrGrArGfCfCrGfUfUfCfCrArGrAfCrGrAfCfUfCrGfCfCfCrGrA
With B1 the “IL-8 production, fold compared to unmodified 5′ppp RNAs” value (IL-8) was “over 2 fold”, the “IL-8 production, in words” value (IL-8) was “strong induction” and the “apoptosis after dephosphorylation of the aptamer” value (WM266-4 cells) was “partially prevented”.
